Reference: paper PMC9280360
Values joined by “and” are separate entries in the source; they are usually repeats but may differ in a detail not shown here. Equal values may be shown once.

Target: proprietary Ral effector protein (Ral-BP binding plate of the RalA G-LISA Activation Assay Kit)
Experiment: ELISA; RalA G-LISA Activation Assay Kit; purified RalA incubated in the presence or absence of 15 uM GTP for 1.5 h at 25 C, then 50 ng of the RalA/GTP mixture applied to the Ral-BP binding plate (effector immobilised); n = 3

Row | Binder | downstream effector binding (G-LISA signal)
1 | Flag-tagged mutant RalA (RALA c.G482A, p.Arg161Gln) (natural protein) MAANKPKGQNSLALHKVIMVGSGGVGKSALTLQFMYDEFVEDYEPTKADSYRKKVVLDGEEVQIDILDTAGQEDYAAIRDNYFRSGEGFLCVFSITEMESFAATADFREQILRVKEDENVPFLLVGNKSDLEDKRQVSVEEAKNRAEQWNVNYVETSAKTQANVDKVFFDLMREIRARKMEDSKEKNGKKKRKSLAKRIRERCCIL | 3.24 and 3.33
2 | Flag-tagged wild-type RalA (RALA, NM_005402) (natural protein) MAANKPKGQNSLALHKVIMVGSGGVGKSALTLQFMYDEFVEDYEPTKADSYRKKVVLDGEEVQIDILDTAGQEDYAAIRDNYFRSGEGFLCVFSITEMESFAATADFREQILRVKEDENVPFLLVGNKSDLEDKRQVSVEEAKNRAEQWNVNYVETSAKTRANVDKVFFDLMREIRARKMEDSKEKNGKKKRKSLAKRIRERCCIL | 1.74
